Experimental data as given in the RNAGym collection of RNA variant scans (doi:10.1093/molbev/msab373).

B1: Azoarcus group I ribozyme (parent)
chain: GUGCCUUGCGCCGGGAAACCACGCAAGGGAUGGUGUCAAAUUCGGCGAAACCUAAGCGCCCGCCCGGGCGUAUGGCAACGCCGAGCCAAGCUUCGGCGCCUGCGCCGAUGAAGGUGUAGAGACUAGACGGCACCCACCUAAGGCAAACGCUAUGGUGAAGGCAUAGUCCAGGGAGUGGCGAAAGUCACACAAACCGG

Variants of: B1
Assay: reverse-splicing fitness (ratio to wild type); higher = more active; in vitro selection; Mg2+ level not given
Method in brief: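 An in vitro group I ribozyme library with randomized positions was T7-transcribed and gel-purified. In triplicate, 10 pmol RNA in EPPS pH 7.5 was reacted with 50 pmoles of a 30-nt RNA substrate for 1 h at 37 °C across several added MgCl2 levels (1–48 mM), then stopped with EDTA. Products were reverse transcribed from a substrate-complementary primer, PCR-amplified and sequenced (HiSeq 4000). Fitness is a variant's read proportion after selection over that before, normalised to wild type.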

For C82A A111G C150G C169U U176A, which reverse-splicing fitness is on record?
The reverse-splicing fitness was 0.00656.

Which reverse-splicing fitness does the source give for C82A A111G C150G C169U U176G here?
Its reverse-splicing fitness is 0.00537.

With C82A A111G C150G C169U U176C as the variant, how does the reverse-splicing fitness read?
Its reverse-splicing fitness is 0.0125.

With C82A A111G A120U C169U U176A as the variant, how does the reverse-splicing fitness read?
The reverse-splicing fitness was 0.00447.

With C82A A111G A120U C169U U176C as the variant, how does the reverse-splicing fitness read?
The reverse-splicing fitness was 0.00427.

For C82A A111G A120U C169U U176G, which reverse-splicing fitness is on record?
Its reverse-splicing fitness is 0.00235.

For C82A A111G A145G U176A, which reverse-splicing fitness is on record?
The reverse-splicing fitness was 0.184.

For C82A A111G A145G U176G, which reverse-splicing fitness is on record?
The reverse-splicing fitness was 0.0444.

For C82A A111G A145G U176C, which reverse-splicing fitness is on record?
The reverse-splicing fitness was 0.245.

With C82A A111G A145C C150G C169G U176C as the variant, how does the reverse-splicing fitness read?
Its reverse-splicing fitness is 0.00679.

Which reverse-splicing fitness does the source give for C82A A111G A145C C150G C169G U176G here?
The reverse-splicing fitness was 0.00649.

For C82A A111G A145C C150G C169G U176A, which reverse-splicing fitness is on record?
Its reverse-splicing fitness is 0.0093.

Which reverse-splicing fitness does the source give for C82A A111G A145G C150G C169G U176G here?
The reverse-splicing fitness was 0.00597.

Which reverse-splicing fitness does the source give for C82A A111G A145G C150G C169G U176C here?
The reverse-splicing fitness was 0.011.

Which reverse-splicing fitness does the source give for C82A A111G A145G C150G C169G U176A here?
The reverse-splicing fitness was 0.0112.

For C82A A111G A145U C150G C169A U176G, which reverse-splicing fitness is on record?
The reverse-splicing fitness was 0.00684.

For C82A A111G A145U C150G C169A U176C, which reverse-splicing fitness is on record?
The reverse-splicing fitness was 0.0104.

With C82A A111G A145U C150G C169A U176A as the variant, how does the reverse-splicing fitness read?
The reverse-splicing fitness was 0.0104.

For C82A A111G A145G C150A C169G U176C, which reverse-splicing fitness is on record?
The reverse-splicing fitness was 0.0256.

Which reverse-splicing fitness does the source give for C82A A111G A145G C150A C169G U176G here?
The reverse-splicing fitness was 0.00702.

For C82A A111G A145G C150A C169G U176A, which reverse-splicing fitness is on record?
Its reverse-splicing fitness is 0.0224.

Which reverse-splicing fitness does the source give for C82A A111U A120C A145C C150G C169A here?
The reverse-splicing fitness was 0.00897.

With C82A A111U A120C A145C C150G C169G as the variant, how does the reverse-splicing fitness read?
The reverse-splicing fitness was 0.00743.

For C82A A111U A120C A145C C150G C169U, which reverse-splicing fitness is on record?
The reverse-splicing fitness was 0.00963.

For C82A A111U A120C A145C C150G C169G U176G, which reverse-splicing fitness is on record?
The reverse-splicing fitness was 0.0065.

With C82A A111U A120C A145C C150G C169G U176C as the variant, how does the reverse-splicing fitness read?
Its reverse-splicing fitness is 0.00882.

Which reverse-splicing fitness does the source give for C82A A111U A120C A145C C150G C169G U176A here?
Its reverse-splicing fitness is 0.0109.

Which reverse-splicing fitness does the source give for C82A A111U A120C A145C C150A U176G here?
Its reverse-splicing fitness is 0.00578.

With C82A A111U A120C A145C C150A U176A as the variant, how does the reverse-splicing fitness read?
Its reverse-splicing fitness is 0.0115.

Which reverse-splicing fitness does the source give for C82A A111U A120C A145C C150A U176C here?
Its reverse-splicing fitness is 0.0167.

For C82A A111G A145C C169U U176G, which reverse-splicing fitness is on record?
Its reverse-splicing fitness is 0.00571.

Which reverse-splicing fitness does the source give for C82A A111G A145C C169U U176C here?
Its reverse-splicing fitness is 0.0113.

For C82A A111G A145C C169U U176A, which reverse-splicing fitness is on record?
The reverse-splicing fitness was 0.013.

With C82A A111U A120C A145C C150A as the variant, how does the reverse-splicing fitness read?
The reverse-splicing fitness was 0.012.

With C82A A111U A120C A145C C150G as the variant, how does the reverse-splicing fitness read?
Its reverse-splicing fitness is 0.00984.

With C82A A111U A120C A145C C150U as the variant, how does the reverse-splicing fitness read?
The reverse-splicing fitness was 0.0149.

Which reverse-splicing fitness does the source give for C82A A111G C150U C169A U176G here?
Its reverse-splicing fitness is 0.00716.

For C82A A111G C150U C169A U176C, which reverse-splicing fitness is on record?
The reverse-splicing fitness was 0.0164.

For C82A A111G C150U C169A U176A, which reverse-splicing fitness is on record?
Its reverse-splicing fitness is 0.0185.

With C82A A111G C150U C169U as the variant, how does the reverse-splicing fitness read?
The reverse-splicing fitness was 0.0122.

Which reverse-splicing fitness does the source give for C82A A111G C150U C169A here?
Its reverse-splicing fitness is 0.011.

With C82A A111G C150U C169G as the variant, how does the reverse-splicing fitness read?
The reverse-splicing fitness was 0.00992.

Which reverse-splicing fitness does the source give for C82A A111G A145G C150G C169A U176C here?
Its reverse-splicing fitness is 0.0154.

With C82A A111G A145G C150G C169A U176G as the variant, how does the reverse-splicing fitness read?
Its reverse-splicing fitness is 0.00909.

With C82A A111G A145G C150G C169A U176A as the variant, how does the reverse-splicing fitness read?
The reverse-splicing fitness was 0.0148.

With C82A A111G A145U C150G C169A as the variant, how does the reverse-splicing fitness read?
The reverse-splicing fitness was 0.00833.

With C82A A111G A145U C150G C169G as the variant, how does the reverse-splicing fitness read?
Its reverse-splicing fitness is 0.00749.

For C82A A111G A145U C150G C169U, which reverse-splicing fitness is on record?
The reverse-splicing fitness was 0.00964.

Which reverse-splicing fitness does the source give for C82A A111G A145G C150A C169U U176G here?
The reverse-splicing fitness was 0.00672.

For C82A A111G A145G C150A C169U U176A, which reverse-splicing fitness is on record?
Its reverse-splicing fitness is 0.0159.

With C82A A111G A145G C150A C169U U176C as the variant, how does the reverse-splicing fitness read?
Its reverse-splicing fitness is 0.0164.

Which reverse-splicing fitness does the source give for C82A A111G A145U C150U C169A U176C here?
Its reverse-splicing fitness is 0.0114.

With C82A A111G A145U C150U C169A U176G as the variant, how does the reverse-splicing fitness read?
The reverse-splicing fitness was 0.00665.

Which reverse-splicing fitness does the source give for C82A A111G A145U C150U C169A U176A here?
Its reverse-splicing fitness is 0.0133.

For C82A A111G A120U C150U C169G U176A, which reverse-splicing fitness is on record?
The reverse-splicing fitness was 0.00869.

Which reverse-splicing fitness does the source give for C82A A111G A120U C150U C169G U176G here?
Its reverse-splicing fitness is 0.00175.

For C82A A111G A120U C150U C169G U176C, which reverse-splicing fitness is on record?
The reverse-splicing fitness was 0.00437.

For C82A A111G A145C C150U C169G U176C, which reverse-splicing fitness is on record?
Its reverse-splicing fitness is 0.0114.

With C82A A111G A145C C150U C169G U176A as the variant, how does the reverse-splicing fitness read?
Its reverse-splicing fitness is 0.0215.

Which reverse-splicing fitness does the source give for C82A A111G A145C C150U C169G U176G here?
The reverse-splicing fitness was 0.00676.

With C82A A111G C169A as the variant, how does the reverse-splicing fitness read?
Its reverse-splicing fitness is 0.00855.

For C82A A111G C169G, which reverse-splicing fitness is on record?
Its reverse-splicing fitness is 0.00926.

For C82A A111G C169U, which reverse-splicing fitness is on record?
The reverse-splicing fitness was 0.0132.

With C82A A111G A145G C150A U176A as the variant, how does the reverse-splicing fitness read?
The reverse-splicing fitness was 0.0293.

Which reverse-splicing fitness does the source give for C82A A111G A145G C150A U176G here?
Its reverse-splicing fitness is 0.0122.

Which reverse-splicing fitness does the source give for C82A A111G A145G C150A U176C here?
Its reverse-splicing fitness is 0.0453.

With C82A A111G C169G U176A as the variant, how does the reverse-splicing fitness read?
Its reverse-splicing fitness is 0.0181.

Which reverse-splicing fitness does the source give for C82A A111G C169G U176C here?
The reverse-splicing fitness was 0.0207.

For C82A A111G C169G U176G, which reverse-splicing fitness is on record?
The reverse-splicing fitness was 0.00548.

For C82A A111U A120C A145C, which reverse-splicing fitness is on record?
Its reverse-splicing fitness is 0.0267.

Which reverse-splicing fitness does the source give for C82A A111U A120C A145C C150U C169A here?
The reverse-splicing fitness was 0.00907.

For C82A A111U A120C A145C C150U C169G, which reverse-splicing fitness is on record?
The reverse-splicing fitness was 0.00912.

With C82A A111G C150U C169U U176A as the variant, how does the reverse-splicing fitness read?
Its reverse-splicing fitness is 0.0148.

For C82A A111G C150U C169U U176G, which reverse-splicing fitness is on record?
The reverse-splicing fitness was 0.00623.

Which reverse-splicing fitness does the source give for C82A A111G C150U C169U U176C here?
Its reverse-splicing fitness is 0.0136.

With C82A A111G A145U C150U C169U U176C as the variant, how does the reverse-splicing fitness read?
Its reverse-splicing fitness is 0.0116.

Which reverse-splicing fitness does the source give for C82A A111G A145U C150U C169U U176A here?
Its reverse-splicing fitness is 0.014.

Which reverse-splicing fitness does the source give for C82A A111G A145U C150U C169U U176G here?
Its reverse-splicing fitness is 0.00658.

Which reverse-splicing fitness does the source give for C82A A111G A145C C169G U176A here?
Its reverse-splicing fitness is 0.0278.

Which reverse-splicing fitness does the source give for C82A A111G A145C C169G U176G here?
Its reverse-splicing fitness is 0.00487.

Which reverse-splicing fitness does the source give for C82A A111G A145C C169G U176C here?
Its reverse-splicing fitness is 0.0155.

Which reverse-splicing fitness does the source give for C82A A111G C150A C169G U176G here?
Its reverse-splicing fitness is 0.00691.

With C82A A111G C150A C169G U176A as the variant, how does the reverse-splicing fitness read?
Its reverse-splicing fitness is 0.0221.
